Reference: FireProtDB (doi:10.1021/bi001735j)
Where “and” joins values, the source holds several entries; their conditions need not be identical. Equal values may be shown once.

Settings: Homo sapiens, pH 7, 25 °C, GdnHCl, CD, sodium cacodylate 50 mM, NaCl 50 mM, whole UniProt chain shown

B1: Alpha-lactalbumin wild type, P00709 (protein)
chain: MRFFVPLFLVGILFPAILAKQFTKCELSQLLKDIDGYGGIALPELICTMFHTSGYDTQAIVENNESTEYGLFQISNKLWCKSSQVPQSRNICDISCDKFLDDDITDDIMCAKKILDIKGIDYWLAHKALCTEKLEQWLCEKL
- denaturant m value (transition: 3): 2.2 kcal/mol/M and 0.77 kcal/mol/M and 0.75 kcal/mol/M
- denaturant m value: 2.9 kcal/mol/M and 2.4 kcal/mol/M and 4.4 kcal/mol/M
- unfolding free energy: 6.9 kcal/mol and 7.2 kcal/mol and 13.8 kcal/mol
